According to the RNAGym collection of RNA variant scans (doi:10.7554/elife.90254):

B1: LINE1-full (parent)
chain: UACGUAGGUGGUUUUCCCCUGAUAGUGCUAAGGGGGCCUGGAAGUUUGGACUGGGCAGAGCUCAACACAGCGUGGCAAAGUGGCUGUGGCUAGACUGCCUCUCUGGAUUCCUCGUCACUCAGCAGGGCAUCUCUGAGAGAAAUGCC

Variants of: B1
Assay: self-cleavage, relative activity (ratio to wild type); higher = more cleavage; in vitro, sequencing; the parent is a self-cleaving ribozyme

First: UACGAAGGUGGCUUUCCCCUGAUAGUGCUAAGGGGGCCUGGAAGUUUGGACUGGGCAGAGCUCAACACAGCGUGGCAAAGUGGCUGUGGCUAGACUGCCUCUCUGGAUUCCUCGUCACUCAGCAGGGCAUCUCUGAGAGAAAUGCC [U5A U12C]
Second: UACGAAGGUGGGUUUCCCCUGAUAGUGCUAAGGGGGCCUGGAAGUUUGGACUGGGCAGAGCUCAACACAGCGUGGCAAAGUGGCUGUGGCUAGACUGCCUCUCUGGAUUCCUCGUCACUCAGCAGGGCAUCUCUGAGAGAAAUGCC [U5A U12G]
The self-cleavage of the first is higher: 0.74 for the first, 0.6 for the second.

First: UACGAAGGUGGUUUUCCCCUGAUAGUGCAAAGGGGGCCUGGAAGUUUGGACUGGGCAGAGCUCAACACAGCGUGGCAAAGUGGCUGUGGCUAGACUGCCUCUCUGGAUUCCUCGUCACUCAGCAGGGCAUCUCUGAGAGAAAUGCC [U5A U29A]
Second: UACGAAGGUGGUUUUCCCCUGAUAGUGCUAAGGGGGCCGGGAAGUUUGGACUGGGCAGAGCUCAACACAGCGUGGCAAAGUGGCUGUGGCUAGACUGCCUCUCUGGAUUCCUCGUCACUCAGCAGGGCAUCUCUGAGAGAAAUGCC [U5A U39G]
The self-cleavage of the first is higher: 1.16 for the first, 0.22 for the second.

First: UACGAAGGUGGUUUUCCCCUGAUAGUGCUAAGGGGGCCUGGAAGCUUGGACUGGGCAGAGCUCAACACAGCGUGGCAAAGUGGCUGUGGCUAGACUGCCUCUCUGGAUUCCUCGUCACUCAGCAGGGCAUCUCUGAGAGAAAUGCC [U5A U45C]
Second: UACGAAGGUGGUUUUCCCCUGAUAGUGCUAAGGGGGCCUGGAAGGUUGGACUGGGCAGAGCUCAACACAGCGUGGCAAAGUGGCUGUGGCUAGACUGCCUCUCUGGAUUCCUCGUCACUCAGCAGGGCAUCUCUGAGAGAAAUGCC [U5A U45G]
The self-cleavage of the first is higher: 1 for the first, 0.71 for the second.

Going from UACGAAGGUGGUUUUCCCCUGAUAGUGCUAAGGGGGCCUGGAAGUUUGGACUGGGCAGAGCACAACACAGCGUGGCAAAGUGGCUGUGGCUAGACUGCCUCUCUGGAUUCCUCGUCACUCAGCAGGGCAUCUCUGAGAGAAAUGCC [U5A U62A] to UACGAAGGUGGUUUUCCCCUGAUAGUGCUAAGGGGGCCUGGAAGUUUGGACUGGGCAGAGCUCAACACAGCGAGGCAAAGUGGCUGUGGCUAGACUGCCUCUCUGGAUUCCUCGUCACUCAGCAGGGCAUCUCUGAGAGAAAUGCC [U5A U73A], the self-cleavage rises from 0 to 2.19.

Going from UACGAAGGUGGUUUUCCCCUGAUAGUGCUAAGGGGGCCUGGAAGUUUGGACUGGGCAGAGCUCAACACAGCGCGGCAAAGUGGCUGUGGCUAGACUGCCUCUCUGGAUUCCUCGUCACUCAGCAGGGCAUCUCUGAGAGAAAUGCC [U5A U73C] to UACGAAGGUGGUUUUCCCCUGAUAGUGCUAAGGGGGCCUGGAAGUUUGGACUGGGCAGAGCUCAACACAGCGGGGCAAAGUGGCUGUGGCUAGACUGCCUCUCUGGAUUCCUCGUCACUCAGCAGGGCAUCUCUGAGAGAAAUGCC [U5A U73G], the self-cleavage falls from 1.41 to 0.48.

Going from UACGAAGGUGGUUUUCCCCUGAUAGUGCUAAGGGGGCCUGGAAGUUUGGACUGGGCAGAGCUCAACACAGCGUGGCAAAGCGGCUGUGGCUAGACUGCCUCUCUGGAUUCCUCGUCACUCAGCAGGGCAUCUCUGAGAGAAAUGCC [U5A U81C] to UACGAAGGUGGUUUUCCCCUGAUAGUGCUAAGGGGGCCUGGAAGUUUGGACUGGGCAGAGCUCAACACAGCGUGGCAAAGUGGCAGUGGCUAGACUGCCUCUCUGGAUUCCUCGUCACUCAGCAGGGCAUCUCUGAGAGAAAUGCC [U5A U85A], the self-cleavage falls from 0.99 to 0.14.

Compared with UACGAAGGUGGUUUUCCCCUGAUAGUGCUAAGGGGGCCUGGAAGUUUGGACUGGGCAGAGCUCAACACAGCGUGGCAAAGUGGCUGUGGCUAGACUGCCUCCCUGGAUUCCUCGUCACUCAGCAGGGCAUCUCUGAGAGAAAUGCC [U5A U102C], UACGAAGGUGGUUUUCCCCUGAUAGUGCUAAGGGGGCCUGGAAGUUUGGACUGGGCAGAGCUCAACACAGCGUGGCAAAGUGGCUGUGGCUAGACUGCCUCUCCGGAUUCCUCGUCACUCAGCAGGGCAUCUCUGAGAGAAAUGCC [U5A U104C] is higher in self-cleavage: 0.95 for the first, 1.1 for the second.

Compared with UACGAAGGUGGUUUUCCCCUGAUAGUGCUAAGGGGGCCUGGAAGUUUGGACUGGGCAGAGCUCAACACAGCGUGGCAAAGUGGCUGUGGCUAGACUGCCUCUCUGGAUUCCUCGUCACACAGCAGGGCAUCUCUGAGAGAAAUGCC [U5A U119A], UACGAAGGUGGUUUUCCCCUGAUAGUGCUAAGGGGGCCUGGAAGUUUGGACUGGGCAGAGCUCAACACAGCGUGGCAAAGUGGCUGUGGCUAGACUGCCUCUCUGGAUUCCUCGUCACCCAGCAGGGCAUCUCUGAGAGAAAUGCC [U5A U119C] is lower in self-cleavage: 1.05 for the first, 0.9 for the second.

First: UACGAAGGUGGUUUUCCCCUGAUAGUGCUAAGGGGGCCUGGAAGUUUGGACUGGGCAGAGCUCAACACAGCGUGGCAAAGUGGCUGUGGCUAGACUGCCUCUCUGGAUUCCUCGUCACUCAGCAGGGCAUCACUGAGAGAAAUGCC [U5A U132A]
Second: UACGCAGGUGGUUUUCCCCUGAUAGUGCUAAGGGGGCCUGGAAGUUUGGACUGGGCAGAGCUCAACACAGCGUGGCAAAGUGGCUGUGGCUAGACUGCCUCUCUGGAUUCCUCGUCACUCAGCAGGGCAUCUCUGAGAGAAAUGCC [U5C]
The self-cleavage of the first is higher: 1.38 for the first, 1.06 for the second.

Going from UACGCAGGUGGUUUUCCCCUGGUAGUGCUAAGGGGGCCUGGAAGUUUGGACUGGGCAGAGCUCAACACAGCGUGGCAAAGUGGCUGUGGCUAGACUGCCUCUCUGGAUUCCUCGUCACUCAGCAGGGCAUCUCUGAGAGAAAUGCC [U5C A22G] to UACGCAGGUGGUUUUCCCCUGAUGGUGCUAAGGGGGCCUGGAAGUUUGGACUGGGCAGAGCUCAACACAGCGUGGCAAAGUGGCUGUGGCUAGACUGCCUCUCUGGAUUCCUCGUCACUCAGCAGGGCAUCUCUGAGAGAAAUGCC [U5C A24G], the self-cleavage rises from 0.57 to 0.86.
